Measurements reported in patent publication US20200283523A1 (WUXI BIOLOGICS IRELAND, published 2020).

How the values were obtained:
human CD19 [1] = target: T1, human CD19 (human, UniProt P15391 20-556); test: cell-based or functional assay
T1 sequence (looked up): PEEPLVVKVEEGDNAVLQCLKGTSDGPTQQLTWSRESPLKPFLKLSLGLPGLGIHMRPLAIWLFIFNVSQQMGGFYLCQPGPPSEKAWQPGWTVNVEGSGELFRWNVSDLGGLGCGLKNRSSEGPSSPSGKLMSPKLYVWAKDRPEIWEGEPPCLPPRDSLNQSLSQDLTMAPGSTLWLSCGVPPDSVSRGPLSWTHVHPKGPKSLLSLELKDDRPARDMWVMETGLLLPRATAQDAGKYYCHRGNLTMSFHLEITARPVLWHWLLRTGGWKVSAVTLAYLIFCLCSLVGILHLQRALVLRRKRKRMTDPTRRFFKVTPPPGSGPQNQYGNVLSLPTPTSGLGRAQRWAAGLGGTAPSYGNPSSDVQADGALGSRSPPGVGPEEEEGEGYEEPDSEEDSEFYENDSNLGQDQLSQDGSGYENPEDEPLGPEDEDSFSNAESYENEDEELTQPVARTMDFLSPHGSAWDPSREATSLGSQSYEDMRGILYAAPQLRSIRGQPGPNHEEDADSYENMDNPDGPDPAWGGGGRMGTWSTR

human CD19 [2] = target: T1, human CD19; test: flow cytometry on Ramos cells
human CD3 = target: T2, human CD3 (human, UniProt P07766 23-207); test: flow cytometry on Jurkat cells
T2 construct: whole, on cells; On cells CD3 stands as the full CD3/TCR complex; also called CD3 on Jurkat cells
T2 sequence (P07766 23-207): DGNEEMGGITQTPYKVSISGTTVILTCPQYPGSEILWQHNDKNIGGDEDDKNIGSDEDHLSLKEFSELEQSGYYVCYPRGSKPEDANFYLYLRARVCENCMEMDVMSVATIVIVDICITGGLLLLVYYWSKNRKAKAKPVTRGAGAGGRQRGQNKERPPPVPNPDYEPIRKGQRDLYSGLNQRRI

- EC50 (human CD19 [2]): 1.8 nM
- EC50 (human CD3): 19.3 nM
B1: W3438-T3U4.F16-1.uIgG4.SP (bispecific antibody)
light 1: DIVMTQSPDSLAVSLGERATINCKSSQSLLNSRTRKNYLAWYQQKPGQPPKLLIYWASTRQSGVPDRFSGSGSGTDFTLTISSLQAEDVAVYYCTQSHTLRTFGGGTKVEIKPDIQNPDPAVYQLRDSKSSDKSVCLFTDFDSQTQVSQSKDSDVYITDKCVLDMRSMDFKSNSAVAWSQKSDFACANAFQNSIIPEDTFFPSPESS
heavy 1: QVQLVQSGAEVKKPGSSVKVSCKASGFAFTDYYIHWVRQAPGQGLEWMGWISPGNVNTKYNENFKGRVTITADKSTSTAYMELSSLRSEDTAVYYCARDGYSLYYFDYWGQGTLVTVLEDLKNVFPPEVAVFEPSEAEISHTQKATLVCLATGFYPDHVELSWWVNGKEVHSGVCTDPQPLKEQPALQDSRYALSSRLRVSATFWQNPRNHFRCQVQFYGLSENDEWTQDRAKPVTQIVSAEAWGRYGPPCPPCPAPEFLGGPSVFLFPPKPKDTLMISRTPEVTCVVVDVSQEDPEVQFNWYVDGVEVHNAKTKPREEQFNSTYRVVSVLTVLHQDWLNGKEYKCKVSNKGLPSSIEKTISKAKGQPREPQVYTLPPCQEEMTKNQVSLWCLVKGFYPSDIAVEWESNGQPENNYKTTPPVLDSDGSFFLYSRLTVDKSRWQEGNVFSCSVMHEALHNHYTQKSLSLSLGK
light 2: DIQLTQSPSFLSASVGDRVTITCSASSTVNYMHWYQQKPGKAPKLLIYSTSNLASGVPSRFSGSGSGTEFTLTISSLQPEDFATYYCHQWSSYPYTFGQGTKLEIKRTVAAPSVFIFPPSDEQLKSGTASVVCLLNNFYPREAKVQWKVDNALQSGNSQESVTEQDSKDSTYSLSSTLTLSKADYEKHKVYACEVTHQGLSSPVTKSFNRGEC
heavy 2: QMQLVQSGPEVKKPGTSVKVSCKASGYAFTSYNMYWVRQARGQRLEWIGYIDPYNGDTTYNQKFKGRVTITRDMSTSTAYMELSSLRSEDTAVYYCLTTAYAMDYWGQGTLVTVSSASTKGPSVFPLAPCSRSTSESTAALGCLVKDYFPEPVTVSWNSGALTSGVHTFPAVLQSSGLYSLSSVVTVPSSSLGTKTYTCNVDHKPSNTKVDKRVGGGGSGGGGSQMQLVQSGPEVKKPGTSVKVSCKASGYAFTSYNMYWVRQARGQRLEWIGYIDPYNGDTTYNQKFKGRVTITRDMSTSTAYMELSSLRSEDTAVYYCLTTAYAMDYWGQGTLVTVSSASTKGPSVFPLAPCSRSTSESTAALGCLVKDYFPEPVTVSWNSGALTSGVHTFPAVLQSSGLYSLSSVVTVPSSSLGTKTYTCNVDHKPSNTKVDKRVESKYGPPCPPCPAPEFLGGPSVFLFPPKPKDTLMISRTPEVTCVVVDVSQEDPEVQFNWYVDGVEVHNAKTKPREEQFNSTYRVVSVLTVLHQDWLNGKEYKCKVSNKGLPSSIEKTISKAKGQPREPQVCTLPPSQEEMTKNQVSLSCAVKGFYPSDIAVEWESNGQPENNYKTTPPVLDSDGSFFLVSRLTVDKSRWQEGNVFSCSVMHEALHNHYTQKSLSLSLGK
notes: also called WuXiBody
- cytotoxic activity on Raji cells with CD8+ T cells, EC50 (human CD19 [1]): 3.2 nM
